# Measurements reported in publication PMC7889650.
# Target: Nle-substituted 187-bp NCP (Xenopus laevis)
# Experiment: cryo-EM structure
substance,measurement,value
NSD2C-E1099K/T1150A (from UniProt O96028 661-1365) (domain or fragment),stoichiometry N,1 NSD2 per NCP
